Changes are numbered by the printed parent chain.
T1: mouse TREM2 on cells (mouse, UniProt Q99NH8 19-227)
T1 construct: recombinant on BWZ cells (with DAP12) and native on mouse macrophages; also called BWZmT2; BWZ T2
T1 sequence: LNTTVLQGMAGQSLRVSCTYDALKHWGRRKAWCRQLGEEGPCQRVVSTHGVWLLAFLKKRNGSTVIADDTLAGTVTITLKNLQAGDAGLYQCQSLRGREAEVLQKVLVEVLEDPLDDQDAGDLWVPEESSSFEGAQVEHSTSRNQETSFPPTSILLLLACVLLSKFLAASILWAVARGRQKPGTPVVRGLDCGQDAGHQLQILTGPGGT

T2: human TREM2 on primary cells (human, UniProt Q9NZC2 19-230)
T2 construct: also called TREM2 on hDC; hMAC
T2 sequence: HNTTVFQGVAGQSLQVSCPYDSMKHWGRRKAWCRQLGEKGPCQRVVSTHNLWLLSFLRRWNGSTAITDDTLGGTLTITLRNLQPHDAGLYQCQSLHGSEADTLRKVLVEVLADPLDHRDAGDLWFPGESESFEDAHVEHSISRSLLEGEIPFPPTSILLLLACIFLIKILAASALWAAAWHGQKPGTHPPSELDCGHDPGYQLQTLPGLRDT

T3: recombinant human TREM2-DAP12 fusion protein expressed on cells (human)
T3 construct: also called HEKhT2; 293 cells expressing human TREM2; not shown: None of these limits is stated
T3 chain: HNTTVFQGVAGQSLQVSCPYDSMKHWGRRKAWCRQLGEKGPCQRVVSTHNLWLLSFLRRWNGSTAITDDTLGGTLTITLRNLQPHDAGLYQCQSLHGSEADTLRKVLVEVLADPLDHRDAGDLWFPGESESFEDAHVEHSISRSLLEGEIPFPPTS

B1: 2H8 (antibody, IgG1, V domains shown)
VH: EVQLVESGGGLVQPKGSLKLSCAASGFSFNTYAMNWVRQAPGKGLEWIARIRSKSNNYATYYADSVKDRFTCSRDDSENMFYLQLSSLKTEDTAMYYCVRHGDGNLWYIDVWGTGTTVTVSS
VL: NVLTQSPALMSASPGEKVTMTCSASSSVSYMYWYQQKPRSSPKPWIYLTSILASGVPARFSGSGSGTSYSLTISSMEAEDAATYYCQQWSFNPYTFGGGTKLVIK
notes: mIgG1
B2: 7F8 (antibody, IgG1, V domains shown)
VH: B1 VH with F70I, S122T
VL: VLTQSPALMSASPGEKVTMTCSASSSVSYMYWYQQKPRSSPKPWIYLTSILASGVPARFSGSGSGTSYSLTINNMEAEDAATYYCQQWSFNPYTFGGGTKLVIK
notes: mIgG1
B3: 3A2 (antibody, IgG1, V domains shown)
VH: QVQLQQSGAELVKPGASVKMSCKTSGYPFSNFWITWVKQRPGQGLVWIGDIYPGSDNSNYNEKFKTKATLTVDTSSSTAYMHLSSLTSEDSAVYFCAREAYYTNPGFAYWGQGTLVTVST
VL: DVVMTQTPLSLPVSLGDQASISCRSSQTIIHSNGNTYLEWYLRKPGQSPKLLIYKVSNRFSGVPDRFSGSGSGTDFTLKISRVEAEDLGVYYCFQGSHVPYTFGGGTELEIK
notes: mIgG1; variable domains built FR1-HVR1-FR2-HVR2-FR3-HVR3-FR4
B4: 6H2 (antibody, IgG2a, V domains shown)
VH: QVQLQESGPGLVQPSQSLSIICTVSAFSLTNYAVHWIRQSPGKGLEWLGVIWSGGSTAFNAAFISRLNISKDNSKSQVFFKMNSLQSDDTAIYYCATHYYRSTYAFSYWGQGTLVTVSA
VL: B3 VL with V3L, T28S, I30V, R43Q, Y101F, G105S, E108K
notes: mIgG2a
B5: 10A9 (antibody, IgG1, V domains shown)
VH: B3 VH with L11V, S58R, Y60F, K63R, T120A
VL: B3 VL with S61C
notes: mIgG1
B6: 8A1 (antibody, IgG2a, V domains shown)
VH: EVQLQQSGAELVKPGASVKISCKASGYAFSNYWMSWVKQRPGKGLEWIGQIYPGDGDTKYNGKFEGKATLTADKSSSTAYMQLSSLTSEDSAVYFCSREKGADYYGSTYSAWFSYWGQGTLVTVSA
VL: DIQMTQSPASLSVSVGETVTITCRTSENVYSNLAWYQQKQGKSPQLLVYAATNLADGVPSRFSASGSATQFSLKINSLQSADFGSYYCHHFWGTPYTFGGGTKLEMN
notes: mIgG2a
B7: 9G1 (antibody, IgG1, V domains shown)
VH: QVQLQQSGAELVKPGASVKLSCKASGYIFTTYWIHWVKQRPGRGPEWIGRIDPNNGDTNYNEKFKTKATLTVDKPSSTADMQLSSLTSEDSAVYYCVMTGTDFDYWGQGTTLTVSS
VL: DVLMTQTPLSLPVSLGDQASISCRFSQSLVHSNGNTYLHWYLQKPGQSPKLLIYKVSNRFSGVPDRFSGSGSGTDFTLRISGVEAEDLGVYFCSQSTRVPPTFGGGTKLEIK
notes: mIgG1

Key:
mouse TREM2 on cells [1] = target: T1, mouse TREM2 on cells; assay: KD cell binding
[2] = target: T2, human TREM2 on primary cells; assay: FACS, primary hMAC
[3] = target: T3, recombinant human TREM2-DAP12 fusion …; assay: KD cell binding
[4] = target: T2, human TREM2 on primary cells; assay: FACS, primary hDC
[5] = target: T3, recombinant human TREM2-DAP12 fusion …; assay: FACS, HEKhT2 cells
mouse TREM2 on cells [6] = target: T1, mouse TREM2 on cells; assay: FACS on thioglycollate-induced macrophages of wild-type mice (mouse TREM2 only), gated CD11b+ F4/80+

| Binder | Kd (mouse TREM2 on cells [1]) | % Positive hMAC [2] | Kd [3] | % Positive hDC [4] | MFI HEKhT2 [5] | binding result (mouse TREM2 on cells [6]) |
| --- | --- | --- | --- | --- | --- | --- |
| B1 | 6.86 nM | – | – | – | – | – |
| B2 | 1.78 nM | – | – | – | – | – |
| B3 | – | 18% | 4.98 nM | 77% | 7300 MFI | – |
| B4 | – | – | 5.4 nM | 83.9% | 13500 MFI | – |
| B5 | – | 64% | 4.24 nM | 96% | 11900 MFI | no binding |
| B6 | – | 34% | 4.64 nM | 94% | 11000 MFI | – |
| B7 | – | 20% | 9.06 nM | 60% | 3080 MFI | – |

— patent publication US20230295297A1 (Alector, published 2023)
